Our source for the koff values is patent publication US20110123544A1 (published 2011).

Experiment [1] addresses T1, recombinant human IL-12 (rhIL-12) (human, UniProt P29459 23-219; P29460 23-328).
T1 chain 1: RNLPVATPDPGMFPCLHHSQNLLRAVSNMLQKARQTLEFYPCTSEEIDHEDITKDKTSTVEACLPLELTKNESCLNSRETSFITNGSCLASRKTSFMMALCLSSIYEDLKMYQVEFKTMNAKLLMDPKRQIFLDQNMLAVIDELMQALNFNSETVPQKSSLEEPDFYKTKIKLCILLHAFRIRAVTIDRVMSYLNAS
T1 chain 2: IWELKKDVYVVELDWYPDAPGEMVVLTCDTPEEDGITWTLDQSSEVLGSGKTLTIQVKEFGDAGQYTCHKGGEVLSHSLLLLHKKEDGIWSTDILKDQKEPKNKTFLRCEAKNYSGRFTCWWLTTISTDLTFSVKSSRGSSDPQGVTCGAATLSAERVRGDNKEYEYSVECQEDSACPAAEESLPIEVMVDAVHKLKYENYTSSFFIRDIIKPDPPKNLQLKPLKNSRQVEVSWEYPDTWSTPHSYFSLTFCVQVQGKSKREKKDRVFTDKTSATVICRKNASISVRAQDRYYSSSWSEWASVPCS
The experiment in a line: BIAcore.

Experiment [2] addresses T2, recombinant human interleukin 12 (p40/p35 heterodimer) (human, UniProt P29460 23-328; P29459 23-219).
T2 chain 1: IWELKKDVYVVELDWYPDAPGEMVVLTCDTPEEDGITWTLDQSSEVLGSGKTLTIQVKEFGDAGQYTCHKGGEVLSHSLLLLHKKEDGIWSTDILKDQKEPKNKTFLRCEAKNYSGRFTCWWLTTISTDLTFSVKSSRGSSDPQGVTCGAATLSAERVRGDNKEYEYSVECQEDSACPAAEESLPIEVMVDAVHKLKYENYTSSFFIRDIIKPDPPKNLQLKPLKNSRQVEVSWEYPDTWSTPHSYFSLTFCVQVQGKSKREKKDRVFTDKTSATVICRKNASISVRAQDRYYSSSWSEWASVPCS
T2 chain 2: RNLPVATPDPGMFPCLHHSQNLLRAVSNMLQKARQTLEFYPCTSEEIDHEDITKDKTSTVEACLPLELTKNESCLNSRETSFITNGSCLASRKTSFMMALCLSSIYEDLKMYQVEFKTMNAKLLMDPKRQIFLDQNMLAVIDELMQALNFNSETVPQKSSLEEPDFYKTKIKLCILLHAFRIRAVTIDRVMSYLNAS
The experiment in a line: BIAcore. For orientation: In SPR one partner is held on a chip, and binding of the other changes the refractive index at the surface.

Experiment [3] deals with T3, recombinant human IL-12 (rhIL-12) (human, UniProt P29459 23-219; P29460 23-328).
T3 construct: disulfide-linked p35/p40 heterodimer (p70); also called rec. human IL12; IL-12 p70
T3 sequence (looked up) 1: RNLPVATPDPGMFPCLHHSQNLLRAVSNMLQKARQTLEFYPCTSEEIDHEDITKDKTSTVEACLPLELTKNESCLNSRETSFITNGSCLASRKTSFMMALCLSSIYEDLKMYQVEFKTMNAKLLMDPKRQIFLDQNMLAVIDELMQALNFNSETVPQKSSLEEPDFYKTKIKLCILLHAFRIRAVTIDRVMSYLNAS
T3 sequence (looked up) 2: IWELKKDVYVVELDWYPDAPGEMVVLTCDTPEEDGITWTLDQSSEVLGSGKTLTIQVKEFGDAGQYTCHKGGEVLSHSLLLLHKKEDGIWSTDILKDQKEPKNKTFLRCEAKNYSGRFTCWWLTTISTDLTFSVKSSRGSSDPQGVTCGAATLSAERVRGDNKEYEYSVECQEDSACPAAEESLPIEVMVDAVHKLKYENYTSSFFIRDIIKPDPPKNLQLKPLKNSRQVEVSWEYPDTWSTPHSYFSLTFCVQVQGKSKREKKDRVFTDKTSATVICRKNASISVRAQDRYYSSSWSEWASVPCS
The experiment in a line: BIAcore (SPR) off-rate on IL-12 chip.
Text: The system utilizes the optical properties of SPR to detect alterations in protein concentrations within a dextran biosensor matrix. Proteins are covalently bound to the dextran matrix at known concentrations. […] To determine the off rate (koff), on rate (kₒₙ), association rate (Ka) and dissociation rate (Kd) constants, BIAcore kinetic evaluation software (version 2.1) was used.

The term koff denotes the first-order rate constant of dissociation.

HGSHDT [Y61 H102 T]: in experiment [1], the off-rate (koff) was 0.000333 s⁻¹. On to FIRYDGSNKNYADSVKG [Y61 H58 N], for which, in experiment [2], the off-rate (koff) was 0.000831 s⁻¹. Take HGSHDH [Y61 H102 H]: the off-rate (koff) in experiment [1] stood at 0.00018 s⁻¹.

Regarding HGSHNN [Y61 H101 N], the koff in experiment [1] came out at 0.00223 s⁻¹. On to FIRYDGSNKIYADSVKG [Y61 H58 I], for which the koff in experiment [2] was 0.000657 s⁻¹. Still for that read-out and setting: under FIRYDGSGKYYADSVKG [Y61 H56 G] stands 0.000272 s⁻¹; under FIRYDGSNKPYADSVKG [Y61 H58 P], 0.000628 s⁻¹; under FIRYDGSNKSYADSVKG [Y61 H58 S], 0.000941 s⁻¹.

Regarding HGSHDL [Y61 H102 L], the off-rate (koff) in experiment [1] was found to be 0.000956 s⁻¹. Turning to HGSHDR [Y61 H102 R], the koff in experiment [1] amounted to 0.000575 s⁻¹. As to HGSHAN [Y61 H101 A], the koff in experiment [1] stood at 0.00106 s⁻¹.

In the case of HGSHIN [Y61 H101 I], in experiment [1], the dissociation rate constant (koff) worked out at 0.00162 s⁻¹. Still for that read-out and setting: under HGSHDS [Y61 H102 S] stands 0.000325 s⁻¹.

B1: 99-H4 (scFv, V domains shown)
VH: QVQLVQSGGGVVQPGRSLRLSCAASGFTFSSYGMHWVRQAPGKGLEWVAFIRYDGSNKYYADSVKGRFTISRDNSKNTLYLQMKSLRAEDTAVYYCKTHGSHDNWGQGTMVTVSS
VL: SYVLTQPPSVSGTPGQRVTISCSGGRSNIGSNTVKWYQQLPGTAPKLLIYGNDQRPSGVPDRFSGSKSGTSASLAITGVQAEDEADYYCQSYDSRFTGSRVFGTGTKVTVLG
For the molecule B1, the koff in experiment [3] stood at 0.0048 s⁻¹.

In the case of HGSHGN [Y61 H101 G], the koff in experiment [1] worked out at 0.00375 s⁻¹. On the same count and under the same terms, under HGSHDW [Y61 H102 W] stands 0.000235 s⁻¹; under HGSHDI [Y61 H102 I], 0.000996 s⁻¹. On to HGSHDF [Y61 H102 F], for which, in experiment [1], the koff amounted to 0.000318 s⁻¹. On to HGSHVN [Y61 H101 V], for which the koff in experiment [1] is 0.00163 s⁻¹. With HGSHDG [Y61 H102 G], the off-rate (koff) in experiment [1] amounted to 0.000692 s⁻¹. On the same count and under the same terms, with HGSHDP [Y61 H102 P] the figure was 0.00181 s⁻¹. As for FIRYDGSSKYYADSVKG [Y61 H56 S], the off-rate (koff) in experiment [2] stood at 0.000624 s⁻¹. HGSHDK [Y61 H102 K]: in experiment [1], the off-rate (koff) was determined as 0.000405 s⁻¹.

For the molecule HGSHDA [Y61 H102 A], the off-rate constant (koff) in experiment [1] came to 0.000382 s⁻¹.
